Assay results taken from publication PMC9769499.

Target: T1, CzcR (Pseudomonas aeruginosa PAO1) (UniProt Q9RLJ1)
T1 sequence: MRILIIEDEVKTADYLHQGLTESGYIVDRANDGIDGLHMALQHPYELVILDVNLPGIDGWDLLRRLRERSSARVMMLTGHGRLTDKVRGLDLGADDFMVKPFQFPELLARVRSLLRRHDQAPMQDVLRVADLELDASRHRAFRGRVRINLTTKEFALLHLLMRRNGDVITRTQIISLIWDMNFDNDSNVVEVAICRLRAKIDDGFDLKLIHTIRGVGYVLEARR
Test: EMSA
Conditions: Thermo Scientific EMSA kit per manufacturer's instructions; buffer, salt, pH and temperature not stated

| Sequence | binding |
| --- | --- |
| GGTGATTTCCTCCAAAGGACCTATTTCGGTTACCTGAGCTTGCGATCTCTCGGCCTGCTTGCTCAGGTGCCCCAAGAATTCGCGTTCATGGTGTTTATCGGCGTTTCCCGGCGGAGCTTTAGAGAAAAAATCAACATTTTCTTTTTCTCTTCCTCTTCAGTGGGTTACATGCTTCGAAGAGGACTCGCCAATATCGGTCCTGAA (double strand) [PfliC] | no binding |
| CATCTGCTTCATACCTTGTGTTGTCGTCTTCCCGGAACGCCCCTTCCAGCGCTCTCCGGTATTGGCGGGAACGATGCGCCATCGCTCCCGGCCCGGCGGAAGCCACCTTCGCTTCCGTCACCCGCGCCACGCGCGGTTCTTCCCACGTCCTCA (double strand) [PfleN] | binds |
| TTTCTTAGCCATGCCAAAAATCCGTCGCTATAGCGTCAAATGAAGGGTTTCACAGGGGCAGAGCAAGGGTTGTGCCATTTCTGCAACGCCGCCCCGCCTCCTGGGACCAGCCCCGGAGGGCTGTCCGAGATGATAGACGGCGCGGATATTACAGCCTGGCCACAGGAAATCATCCCCGTCTTTTGCGAAATTGCC (double strand) [PPA1442] | binds |
| GCAACCGTTCGGAACATTCTTCCCGTCGGGGGTAGGCGAGCGACTTGCCCTGTGGAATAATACTGTCTACTTATACAGTTGTTCGTGGCCGTCCGGCCGCCCTGACTTCGCGAGGACTTCAATGGA (double strand) [recA fragment (PrecA)] | no binding |
| TCATGGGTGTCGGGCTCGGTGTCGGCGAGGCGGCGAACTGGCTTTTCGAGTATTCGGACTATAGTCTTGCGGCTAGCAACCGATAACAAGAGGGAGCCTAGCAGTCCCCCTCCTTATCCTGTTCATTTCGCACGTCCGGTCCTCATGTCAAAAATCATCGGC (double strand) [PmotA] | no binding |
| TACACAGTGTCCTGTTCGAAACCCGCGCCTGACGCGCGGGTTGAACGACTTGGCATGGTGCTTGCCCTATCGAAGGGATAGGGCAGTACATGCACGGTTTTTTGACGGAGATGGATTATGGCCGGTATCTCGATAGGAGTA (double strand) [PfliD] | no binding |
| CTGACTCATGACTCTTCCTCCAACAGCCGCGGCTTTTTTGACGCCGCCCGGCACTTTGCAGAGGAGTTAGCAACAAGGGTGCCAAGTCGGCCCCAAGGCCCGGCATCGGCGTTCGCCGCCAATGCCCGCGACCGCTGCAGGGTCCGTCCCTGCTCCGGTTATCGGCAGGCGCGCACGCTCGAACAG (double strand) [PfliE] | no binding |
| GTTCCAGGGGCTTGCCACCCTTGCCGGCAAGCGGAAGCGGCTTGCCGCTTGCCGCTTCCGGGTTACCCTTAAATAAACTCAAGTTATTGAATATAAAGGTTTTTAATAATTTGGCACGGGCCTTGCTGAAGTGTTGGCGACGAAAGCCACACCGGCAAACAGGTTCGCAGCCATGAGCATCAGTTTCGA (double strand) [PflgB] | binds |
| GCGCACATTGCTGATCAGTTGCGTGCGATCCACTCTCGACTCCCCTGCCCTGCGTATGGCGCCCGTGGGTGGGCGCCGAACAAACTTTTGACGCCGGAATGCGCGTCGGGCGGGTCATTGCAGGAACCGTTCCAACTTTTCAATTCATTGATTGAAAAGGGTTTTCGCCAA (double strand) [PflhA] | no binding |
| GACGTACAGCATCTTGTCCATCGAATCCTCCAGGCACCGGCACAATCCGCCGGGCTTTCTTGCAGGTTATCCAGCAAGCGCCGTGCCAGAATTCGAAAAAACAATTAATACATTGATTTAAAAGGATTTTATAAAACAGAAAGCCTCCTTTCGGAGGCTTCGGGGGCAA (double strand) [PflgF] | binds |
